Experimental findings from patent US20230383005A1 (University of California, published 2023) are described below.

In assay [1] the target is human CD46 on the surface of living multiple myeloma cells (human), P15529. The assay is described as follows: cell-based or functional assay.
The target in assay [2] is T1, recombinant CD46-Fc fusion (human CD46 domains 1 and 2) (human, UniProt P15529 35-159).
T1 construct: domain: domains 1 and 2; also called recombinant human CD46 protein fragment; recombinant CD46-Fc (domains 1 and 2); not shown: Fc from the pFUSE-Fc vector (Invivogen)
T1 sequence (looked up): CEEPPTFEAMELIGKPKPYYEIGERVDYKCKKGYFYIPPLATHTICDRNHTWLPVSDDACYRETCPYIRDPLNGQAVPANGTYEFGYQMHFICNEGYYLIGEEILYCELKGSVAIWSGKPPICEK
The assay is described as follows: BLItz label-free biosensor (ForteBio), sensor coated with YS5 IgG1, CD46-Fc (domains 1 and 2) in solution. (In general: BLI is a label-free optical method that tracks binding on a fibre tip over time.)

Assay [3] has as its target human CD46 on the surface of living multiple myeloma cells (human) (UniProt P15529). The assay is described as follows: FACS on living MM1.S cells, MFI fitted with a one-site specific binding model.
Assay [4] has the same target. The assay is described as follows: FACS on living RPMI8226 cells, MFI fitted with a one-site specific binding model.
The target in assay [5] is T1, recombinant CD46-Fc fusion (human CD46 …). The assay can be described thus: BLItz biolayer interferometry, biosensor coated with YS5 IgG1, CD46-Fc at 100 to 400 nM; one value for all four runs.

As a reminder, the Kd is a measure of binding affinity in units of concentration. As usually defined, the kon is the second-order rate constant of association.

B1: CD46-ADC (anti-CD46 IgG1 YS5 conjugated to MMAF via the mcvcpab linker) (antibody, V domains shown)
VH: QVQLVQSGGGVVQPGRSLRLACAASGLTVNNYAMHWVRQAPGKGLEWVAVISYDGNNKYYADSVKGRFTISRDNSKNTLYLQMNSLRAEDTAVYYCAKGGGYFDLWGRGTLVTVSS
VL: QSVLTQPPSVSGAPGQRVTISCTGSSSNIGAGYDVHWYQQLPGTAPKLLIYGNNNRPSGVPDRFSGSKSGTSASLAITGLQAEDEADYYCSSYTSGTWLFGGGTKLTVL
modifications: here or on the partner: mcvcpab-MMAF on cysteines freed by TCEP reduction; average drug per antibody 3.3; sites not stated
For the molecule B1, in assay [1], the EC50, killing of primary MM patient cells at 48 hours (Annexin V/PI FACS) is less than 10 nM; the EC50, viability of MM1.S alone (luciferase, 96 hours) amounted to 2.25 nM; the EC50, viability of MM1.S in the presence of BM61 stromal cells was found to be 1.05 nM; the EC50, viability of MM1.S in the presence of HS5 stromal cells was 0.77 nM. In assay [1], the EC50, viability of MM1.S in the presence of HS27A stromal cells worked out at 0.92 nM.

B2: YS5 IgG1 (full-length human anti-CD46 IgG1) (antibody, V domains shown)
VH: B1 VH
VL: B1 VL
notes: also called anti-CD46 antibody; CD46 antibody
Regarding B2, the Kd in assay [2] came out at 2.99 nM; in assay [3], 2.24 nM; in assay [4], 1.19 nM. Further, the kon in assay [5] was found to be 88000 M⁻¹ s⁻¹.
